From patent US20220281969A1 (ANTLERA THERAPEUTICS, published 2022) come the findings set out here.

Assay [1] deals with T1, recombinant mouse LRP5-His chimera (mouse, UniProt Q91VN0 31-1383).
T1 construct: extracellular domain; not shown: His tag
T1 sequence (looked up): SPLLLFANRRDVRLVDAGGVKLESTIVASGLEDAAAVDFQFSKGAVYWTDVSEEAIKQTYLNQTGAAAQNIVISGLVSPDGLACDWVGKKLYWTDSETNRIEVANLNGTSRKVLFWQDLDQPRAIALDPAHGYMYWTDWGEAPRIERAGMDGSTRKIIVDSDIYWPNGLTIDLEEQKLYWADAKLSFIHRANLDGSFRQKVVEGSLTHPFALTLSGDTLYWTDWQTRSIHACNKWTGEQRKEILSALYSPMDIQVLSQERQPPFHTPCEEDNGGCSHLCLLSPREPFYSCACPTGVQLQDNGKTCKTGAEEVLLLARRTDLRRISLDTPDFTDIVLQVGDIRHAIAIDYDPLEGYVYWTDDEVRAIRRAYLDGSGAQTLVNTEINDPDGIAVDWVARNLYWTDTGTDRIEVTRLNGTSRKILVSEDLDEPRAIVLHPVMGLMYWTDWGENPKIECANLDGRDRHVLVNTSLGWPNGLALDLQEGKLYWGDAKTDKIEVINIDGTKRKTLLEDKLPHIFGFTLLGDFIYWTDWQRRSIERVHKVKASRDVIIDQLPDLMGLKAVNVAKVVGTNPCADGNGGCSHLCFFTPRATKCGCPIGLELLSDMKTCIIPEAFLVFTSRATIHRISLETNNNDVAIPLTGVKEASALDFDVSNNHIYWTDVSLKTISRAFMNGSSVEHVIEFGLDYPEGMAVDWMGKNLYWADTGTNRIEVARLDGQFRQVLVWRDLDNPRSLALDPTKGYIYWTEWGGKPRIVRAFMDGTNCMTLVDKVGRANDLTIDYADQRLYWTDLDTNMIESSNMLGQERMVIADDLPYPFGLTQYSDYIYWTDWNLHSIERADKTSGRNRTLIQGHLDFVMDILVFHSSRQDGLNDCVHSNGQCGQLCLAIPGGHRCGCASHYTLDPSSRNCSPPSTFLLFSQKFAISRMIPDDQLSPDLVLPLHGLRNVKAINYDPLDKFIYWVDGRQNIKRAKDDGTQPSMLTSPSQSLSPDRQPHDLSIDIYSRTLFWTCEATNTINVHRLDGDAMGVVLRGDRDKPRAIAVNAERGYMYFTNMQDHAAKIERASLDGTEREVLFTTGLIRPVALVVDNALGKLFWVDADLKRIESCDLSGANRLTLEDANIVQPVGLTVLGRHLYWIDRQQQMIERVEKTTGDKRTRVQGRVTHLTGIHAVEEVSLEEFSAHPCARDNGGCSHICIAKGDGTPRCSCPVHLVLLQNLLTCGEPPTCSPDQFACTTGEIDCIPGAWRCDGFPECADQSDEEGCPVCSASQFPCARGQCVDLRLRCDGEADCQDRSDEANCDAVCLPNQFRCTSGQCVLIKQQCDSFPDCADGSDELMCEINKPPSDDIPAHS
As to the kind of experiment: single-point ELISA, IgG1 on coated antigen. Here is the method:
FIGS. 1a and 1b show LRP six antibodies. (A) The amino acid sequences of the complementarity determining regions (CDR) of the heavy (H) and the light (L) chains are presented. The antibodies were grouped into unique epitopes as determined by competitive ELISAs. (B) Single-point ELISAs were performed on 96-well Maxisorb immune plates coated with the […] of mouse LRP5, mouse LRP6 and human LRP6 chimeras. The plates were incubated with the purified Fab or IgG1 at the concentrations indicated followed by incubation with horseradish peroxidase (HRP)-conjugated anti-kappa antibody. The wells were washed eight times followed by incubation with 3,3′,5,5′-tetramethylbenzidine/H₂O₂ peroxidase (TMB) substrate for 5-10 min. The reaction was stopped by adding one M H₃PO₄ and the absorbance was measured spectrometrically at 450 nm in a microtiter plate reader.
(§1) The full length IgG1s were purified and a single-point ELISA was done to determine the specificity of the antibodies. […] A multipoint competitive ELISA was used to determine the relative affinities of the antibodies to the recombinant antigen.

The target in assay [2] is T2, recombinant human LRP6-Fc chimera (human, UniProt O75581 20-1370).
T2 construct: extracellular domain; also called human LRP6 chimera; not shown: Fc part of the chimera
T2 sequence (looked up): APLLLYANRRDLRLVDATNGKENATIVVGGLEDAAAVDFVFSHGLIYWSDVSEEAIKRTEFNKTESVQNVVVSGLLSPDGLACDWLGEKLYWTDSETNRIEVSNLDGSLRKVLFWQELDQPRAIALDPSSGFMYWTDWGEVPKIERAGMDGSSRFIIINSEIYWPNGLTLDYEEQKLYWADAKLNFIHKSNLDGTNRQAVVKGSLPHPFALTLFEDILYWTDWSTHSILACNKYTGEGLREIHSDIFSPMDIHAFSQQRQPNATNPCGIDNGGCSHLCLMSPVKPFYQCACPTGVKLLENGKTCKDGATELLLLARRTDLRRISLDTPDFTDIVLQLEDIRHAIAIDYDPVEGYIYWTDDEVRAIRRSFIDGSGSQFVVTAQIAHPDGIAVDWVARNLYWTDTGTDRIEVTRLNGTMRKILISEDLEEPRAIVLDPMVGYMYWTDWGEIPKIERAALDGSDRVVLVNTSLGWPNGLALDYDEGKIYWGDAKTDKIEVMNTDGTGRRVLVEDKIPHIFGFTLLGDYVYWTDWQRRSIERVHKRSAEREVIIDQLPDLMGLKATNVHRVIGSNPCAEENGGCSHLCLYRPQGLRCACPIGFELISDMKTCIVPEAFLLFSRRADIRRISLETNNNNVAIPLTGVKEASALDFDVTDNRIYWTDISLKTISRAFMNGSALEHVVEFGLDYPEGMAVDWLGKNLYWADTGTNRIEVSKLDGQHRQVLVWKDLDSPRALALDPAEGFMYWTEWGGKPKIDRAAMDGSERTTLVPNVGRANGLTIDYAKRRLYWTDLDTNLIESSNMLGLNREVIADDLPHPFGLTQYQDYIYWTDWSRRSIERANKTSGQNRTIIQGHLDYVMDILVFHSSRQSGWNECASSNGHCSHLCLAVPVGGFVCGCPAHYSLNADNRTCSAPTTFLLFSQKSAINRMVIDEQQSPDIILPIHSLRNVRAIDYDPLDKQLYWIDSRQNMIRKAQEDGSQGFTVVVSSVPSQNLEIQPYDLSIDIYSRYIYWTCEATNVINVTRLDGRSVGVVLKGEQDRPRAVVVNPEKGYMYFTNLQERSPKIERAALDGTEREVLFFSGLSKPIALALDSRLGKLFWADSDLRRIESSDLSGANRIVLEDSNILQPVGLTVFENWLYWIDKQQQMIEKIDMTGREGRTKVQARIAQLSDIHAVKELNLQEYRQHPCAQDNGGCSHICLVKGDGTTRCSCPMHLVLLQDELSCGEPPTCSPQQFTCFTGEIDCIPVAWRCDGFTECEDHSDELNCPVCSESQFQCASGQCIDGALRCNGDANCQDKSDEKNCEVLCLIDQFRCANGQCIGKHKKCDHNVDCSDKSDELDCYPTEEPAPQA
As to the kind of experiment: multipoint competitive ELISA; human LRP6-Fc chimera titrated against OD450 of the IgG1; non-linear regression. Here is the method:
as §1
Table 3 reports the IC50 of LRP6 antibodies as determined by competitive ELISA. The log of the recombinant human LRP6-Fc chimera concentration (x-axis) was plotted against the OD450 reading of the antibody (y-axis). The IC50 was determined by non-linear regression analysis.

Assay [3] has as its target full-length LRP6 receptor expressed on the surface of cell lines (UniProt O75581 20-1613, limits assumed). The experiment in a line: cell-based or functional assay.

B1: LRP6-G3 IgG1 antibody (antibody, V domains shown)
VH: EVQLVESGGGLVQPGGSLRLSCAASGFNISSYYIHWVRQAPGKGLEWVASIYSSYGYTSYADSVKGRFTISADTSKNTAYLQMNSLRAEDTAVYYCARTVRGSKKPYFSGWAMDYWGQGTLVTVSS
VL: DIQMTQSPSSLSASVGDRVTITCRASQSVSSAVAWYQQKPGKAPKLLIYSASSLYSGVPSRFSGSRSGTDFTLTISSLQPEDFATYYCQQYYWPITFGQGTKVEIKR
notes: Tested as purified full length IgG1
With B1, in assay [1], the binding result is on record as “no binding”. In addition, the IC50 in assay [2] amounted to 10.2 nM.

B2: LRP6-A1 IgG1 antibody (antibody, V domains shown)
VH: EVQLVESGGGLVQPGGSLRLSCAASGFNLSYYYIHWVRQAPGKGLEWVASIYSSYGYTSYADSVKGRFTISADTSKNTAYLQMNSLRAEDTAVYYCARTVRGSKKPYFSGWAMDYWGQGTLVTVSS
VL: DIQMTQSPSSLSASVGDRVTITCRASQSVSSAVAWYQQKPGKAPKLLIYSASSLYSGVPSRFSGSRSGTDFTLTISSLQPEDFATYYCQQYYWPITFGQGTKVEIKR
notes: Tested as purified full length IgG1; Synthetic antibody on a human framework, detected with anti-kappa antibody
In the case of B2, the binding result in assay [1] is recorded as “no binding”. Moreover, in assay [2], the IC50 is 9.58 nM.

B3: LRP6-G9 IgG1 antibody (antibody, V domains shown)
VH: EVQLVESGGGLVQPGGSLRLSCAASGFNIYSYYIHWVRQAPGKGLEWVASIYSSYSYTSYADSVKGRFTISADTSKNTAYLQMNSLRAEDTAVYYCARTVRGSKKPYFSGWAMDYWGQGTLVTVSS
VL: DIQMTQSPSSLSASVGDRVTITCRASQSVSSAVAWYQQKPGKAPKLLIYSASSLYSGVPSRFSGSRSGTDFTLTISSLQPEDFATYYCQQYYWPITFGQGTKVEIKR
notes: as for B1
As to B3, in assay [1], the binding result is listed as “no binding”. In addition, the IC50 in assay [2] was 6.03 nM.

B4: LRP6-A10 IgG1 antibody (antibody, V domains shown)
VH: EVQLVESGGGLVQPGGSLRLSCAASGFNISYSSIHWVRQAPGKGLEWVAYISSYYGYTYYADSVKGRFTISADTSKNTAYLQMNSLRAEDTAVYYCARAHYFPWAGAMDYWGQGTLVTVSS
VL: DIQMTQSPSSLSASVGDRVTITCRASQSVSSAVAWYQQKPGKAPKLLIYSASSLYSGVPSRFSGSRSGTDFTLTISSLQPEDFATYYCQQYSWGPFTFGQGTKVEIKR
notes: as for B1
As for B4, in assay [3], the “functional IC50, Wnt3aCM-stimulated TOPflash reporter activity (MDAMB231, U2OS, H23 cells)” value is less than 0.3 nM. For the same molecule, the binding result in assay [1] is given as “no binding”. For the same molecule, in assay [2], the IC50 came to 6.29 nM.

B5: LRP6-B6 IgG1 antibody (antibody, V domains shown)
VH: EVQLVESGGGLVQPGGSLRLSCAASGFNISYSSIHWVRQAPGKGLEWVASISPYYGYTYYADSVKGRFTISADTSKNTAYLQMNSLRAEDTAVYYCARSSYFPWFSAMDYWGQGTLVTVSS
VL: DIQMTQSPSSLSASVGDRVTITCRASQSVSSAVAWYQQKPGKAPKLLIYSASSLYSGVPSRFSGSRSGTDFTLTISSLQPEDFATYYCQQYYFLITFGQGTKVEIKR
notes: as for B1
With B5, the binding result in assay [1] is listed as “no binding”.

B6: LRP6-A10 Fab protein (Fab, V domains shown)
VH: EVQLVESGGGLVQPGGSLRLSCAASGFNISYSSIHWVRQAPGKGLEWVAYISSYYGYTYYADSVKGRFTISADTSKNTAYLQMNSLRAEDTAVYYCARAHYFPWAGAMDYWGQGTLVTVSS
VL: DIQMTQSPSSLSASVGDRVTITCRASQSVSSAVAWYQQKPGKAPKLLIYSASSLYSGVPSRFSGSRSGTDFTLTISSLQPEDFATYYCQQYSWGPFTFGQGTKVEIKR
Turning to B6, the “functional IC50, Wnt3aCM-stimulated TOPflash reporter activity (MDAMB231 cells)” value in assay [3] is less than 0.3 nM.
